From the supplement of paper PMC10126150
± gives the standard deviation of the averaged measurements.

Test system: ATP
Experiment: switch fluorescence ratio, 500 uM ATP over buffer (Cy3 cluster intensity, sum of 5 cycles each) (fold (ratio)); higher = stronger signal-on switching upon ATP binding; sequences stand for … in TCGTCGGCAGCGTCAGATGTGTATAAGAGACAGTTTTTTTTTTTTTTTTTTTTTTTTT…TC
Conditions: aptamer strand: ATP DNA aptamer (quencher-CACCTGGGGGAGTATTGCGGAGGAAGG + anchor), 100 nM annealed; ATP concentration: 500 uM
How it was run: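 Cy3-labelled switching-strand clusters on a modified Illumina MiSeq flow-cell were annealed to 100 nM quencher-labelled ATP aptamer, imaged in selection buffer, then imaged after 15 min with 500 uM ATP at 22 °C. Five buffer/ATP cycles ran, with NaOH stripping and re-annealing between them. The fluorescence ratio is summed target-cycle over summed buffer-cycle Cy3 intensity per cluster, averaged per switch-domain sequence. Clusters outside 100-1000 RFU were excluded.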
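Note: ATP exposure 15 min at 22 °C before imaging.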

| Sequence | switch fluorescence ratio |
| --- | --- |
| GTGTCCTTGG | 1.006 ± 0.0084 |
| TACTTCATTT | 1.03 ± 0.041 |
| CATTTATGCG | 0.989 ± 0.018 |
| TTGGAAGGGT | 1.01 ± 0.031 |
| AATTTTATCT | 0.99 ± 0.014 |
| GGGAGGCGAG | 1.016 ± 0.0011 |
| GTATAATGAT | 0.977 ± 0.03 |
| CAGGGGCACG | 1.06 ± 0.04 |
| TCCAGTGGGA | 1.11 ± 0.087 |
| TATTTGTTAG | 0.997 ± 0.031 |
| CTGAGTTACT | 1.027 ± 0.0025 |
| GATTGGGGTG | 1 ± 0.035 |
| CGGTGTGGGG | 1.01 ± 0.032 |
| TTGCATTTGT | 1 ± 0.03 |
| TTTTCTCTTT | 1.01 ± 0.035 |
| CCAGGTATGA | 1.03 ± 0.035 |
| TAGAGGGGTG | 0.991 ± 0.0026 |
| TTAAAATCAG | 1.01 ± 0.027 |
| ACTTTTTTAA | 1.004 ± 0.0029 |
| TTTGGTGCTT | 0.974 ± 0.045 |
| TGGGCGGGGT | 1.02 ± 0.031 |
| GACGACAGTC | 1.029 ± 0.0052 |
| AGGGGTACGC | 0.95 ± 0.091 |
| AAGTTGAGTT | 1.007 ± 0.0017 |
| GGTTTATGTT | 1 ± 0.019 |

| Sequence | switch fluorescence ratio |
| --- | --- |
| TAGTGACAGC | 1.04 ± 0.014 |
| AATTTGTATT | 0.997 ± 0.011 |
| CAAGAGTGC | 1.025 ± 0.0091 |
| CGTCATTCGC | 1.05 ± 0.16 |
| AAATGGTCGA | 0.974 ± 0.01 |
| TACAGTGAAA | 1.05 ± 0.057 |
| TAGTACAGGC | 1.06 ± 0.015 |
| TTGAATATTT | 1 ± 0.014 |
| TTTATGAGAC | 1.02 ± 0.065 |
| ATGTTATTA | 0.975 ± 0.021 |
| GTGTTATGTG | 0.9504 ± 0.0021 |
| TAGTTTTGTG | 1.01 ± 0.062 |
| AGTTCTAGGA | 0.953 ± 0.03 |
| ATATGTTGAG | 1 ± 0.017 |
| ACTTCCCAAC | 1.33 ± 0.047 |
| GATGGGCACC | 1.01 ± 0.012 |
| TATCCAATCA | 0.9719 ± 0.0081 |
| GGGGGAGAAC | 1.026 ± 0.0019 |
| GCAAAACA | 1.3 ± 0.41 |
| TGGGACGTAC | 1.79 ± 0.15 |
| GCTTTTTAGG | 0.964 ± 0.024 |
| GTACTGTCTC | 0.9929 ± 0.0049 |
| TACCAGTGCG | 1.19 ± 0.15 |
| GTTTTGGGCT | 1.01 ± 0.032 |
| TATATTTGTC | 1.04 ± 0.032 |

| Sequence | switch fluorescence ratio |
| --- | --- |
| CGGTTATTAG | 0.9897 ± 0.0066 |
| GGTTGCACGC | 1.01 ± 0.0046 |
| CGGTGCTATG | 1 ± 0.015 |
| TCGGACTCGT | 1.03 ± 0.044 |
| TTGCTGTTTC | 1 ± 0.067 |
| GTTTTAACAT | 0.9895 ± 0.0073 |
| ATTCGATATA | 1.02 ± 0.014 |
| AGCGGGTTAC | 1.09 ± 0.06 |
| GATACATTGC | 1.07 ± 0.029 |
| TTAATAATTC | 0.996 ± 0.032 |
| CCGGGTATGG | 1.02 ± 0.016 |
| CGGTTTGGCT | 1.08 ± 0.12 |
| CGTTTTGTTA | 0.977 ± 0.028 |
| GCCGTGGAG | 1.0133 ± 0.00012 |
| ATGTTTGTAG | 0.979 ± 0.045 |
| CCAGTATATT | 1.02 ± 0.043 |
| ATGATGATGA | 1.03 ± 0.02 |
| TCGGTAATAT | 1.08 ± 0.16 |
| GGAGTACCTG | 1.06 ± 0.046 |
| AATATATGT | 1.02 ± 0.023 |
| TGGAGCCAGT | 1.01 ± 0.041 |
| AGTTGGGGGA | 0.984 ± 0.014 |
| AGGTGCATTT | 1.08 ± 0.02 |
| AGGGATTGGT | 0.952 ± 0.019 |
| ATTAGGGTTT | 1.04 ± 0.061 |

| Sequence | switch fluorescence ratio |
| --- | --- |
| GGGGGAGTAG | 0.983 ± 0.016 |
| TAAACGCGTA | 0.998 ± 0.029 |
| GGCGGGGGGG | 1.03 ± 0.048 |
| TTAATTTGTC | 1.03 ± 0.061 |
| ATGTTATTTA | 1.01 ± 0.025 |
| GAGGATGTCT | 0.99 ± 0.021 |
| CAGATAGACG | 1.04 ± 0.036 |
| TAGGCACAAC | 1.15 ± 0.025 |
| GTTTATCATT | 0.982 ± 0.011 |
| TCATTTTTCT | 0.98 ± 0.021 |
| GCTAGGTGAA | 1.21 ± 0.017 |
| TTTGGAAAGG | 0.977 ± 0.046 |
| AAGGGGAGTT | 0.998 ± 0.028 |
| GGGGCTGGGT | 1.02 ± 0.031 |
| GAGGGGTATG | 1 ± 0.019 |
| TAGAGTCCAT | 1.02 ± 0.019 |
| TTGCTGGGGG | 1.01 ± 0.059 |
| AAGAAATCTC | 1.04 ± 0.11 |
| AGGTGAAAAG | 1.01 ± 0.02 |
| AAGGGGCGAT | 0.98751 ± 0.00098 |
| GGCCAAGGGT | 1.03 ± 0.0039 |
| TTCGCGGGTG | 1.05 ± 0.025 |
| ACTAGCTGTA | 0.982 ± 0.034 |
| CTAGCGGCCA | 0.991 ± 0.012 |
| AATTGGTTAG | 0.984 ± 0.054 |
